Where no end group is shown, it is not given here.
B1: fluorescein-modified truncated (103–111) LIR^ATG3 peptide (peptide, UniProt Q9NT62 103-111, looked up)
peptide: GDGGWVDTY
modifications: also: fluorescein, position not given here
notes: ATG3, human, amino acids G103-Y111 including the core LIR motif; also called truncated peptide
B2: LIR (L94-H112) peptide 5 (peptide, UniProt Q9NT62 94-112, looked up)
peptide: LEAIIEEDDGDGGWVDTYH
notes: ATG3, human, LIR motif stretch L94-H112; also called linear LIR^ATG3 peptide 5; source: synthetic peptide (chemically prepared)
B3: Cyclic peptide 6 (peptide)
chain: LEAIIEEDDGDGGWVDTYHC
modifications: thioether (positions not given here); not fully specified (bridges); also: cyclized by selective cysteine alkylation, partner of Cys not given here

Legend:
GABARAP = molecular target: T1, GABARAP (UniProt O95166 2-116); experiment: fluorescence polarisation; fluorescein-modified LIR^ATG3 peptide (linear, cyclized or truncated 103–111) with GABARAP or LC3A; triplicates; KD by nonlinear regression; conditions: both partners purified
T1 construct: GABARAP as used in fluorescence polarization and in the cocrystal
T1 sequence (O95166 2-116): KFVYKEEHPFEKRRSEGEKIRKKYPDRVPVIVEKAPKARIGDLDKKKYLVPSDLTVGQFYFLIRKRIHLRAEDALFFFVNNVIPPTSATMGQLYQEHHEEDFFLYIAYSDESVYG

[1] = molecular target: T2, GABARAP(ΔG116)–NHNH methyl-fumarate 2 (UniProt O95166 1-115, C-terminal acyl hydrazide: -NHNH methyl fumarate (mimics the native glycine G116)); experiment: cross-linking; competition: probe 2 (15 μM) incubated with ATG3 C1 in the presence of increasing amounts of LIR^ATG3 peptide; GABARAP–ATG3 C1 complex quantified by gel densitometry, normalized to the reaction without peptide; IC50 by nonlinear regression; conditions: both partners purified
T2 construct: GABARAP; GABARAP(ΔG116): the C-terminal glycine G116 is deleted, so the chain ends at residue 115; it may fit a chain without the first methionine (surmised); also called probe 2; GABARAP methyl fumarate; not shown: Mxe GyrA intein, C-terminal, cleaved
T2 sequence (O95166 1-115, stated change not applied): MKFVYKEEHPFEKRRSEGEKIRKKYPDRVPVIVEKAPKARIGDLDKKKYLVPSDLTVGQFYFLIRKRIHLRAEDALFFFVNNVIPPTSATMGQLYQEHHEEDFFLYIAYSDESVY

Binder	binding result (GABARAP)	IC50 [1]
B1	binds	–
B2	–	104 µM
B3	–	24 µM

Reference: PMC10214526 (ACS Central Science, 2023)
